Test results: paper PMC7794242

Biological target: HCoV-229E S glycoprotein wild-type soluble ectodomain (residues 1-1116) with C-terminal GCN4 trimerization motif (HCoV-229E) (UniProt P15423)
Experiment: cryo-EM structure; S trimer peak 2 (conformation 1, 3.21 A) and peak 3 (conformation 2, 3.55 A) samples at 0.75 mg/ml; C3 symmetry applied

HCoV-229E S glycoprotein wild-type soluble ectodomain (residues 1-1116) with C-terminal GCN4 trimerization motif (from UniProt P15423 16-1116) (domain or fragment)
stoichiometry N: 3
